Drawing on US20240084276, this text covers activity for 1 substance.

Positions count from the first letter of the chain named.

What all share (assay): cell_activity
Series [1] deals with T1, MIT 25-26L.35 (synthetic construct).
T1 sequence: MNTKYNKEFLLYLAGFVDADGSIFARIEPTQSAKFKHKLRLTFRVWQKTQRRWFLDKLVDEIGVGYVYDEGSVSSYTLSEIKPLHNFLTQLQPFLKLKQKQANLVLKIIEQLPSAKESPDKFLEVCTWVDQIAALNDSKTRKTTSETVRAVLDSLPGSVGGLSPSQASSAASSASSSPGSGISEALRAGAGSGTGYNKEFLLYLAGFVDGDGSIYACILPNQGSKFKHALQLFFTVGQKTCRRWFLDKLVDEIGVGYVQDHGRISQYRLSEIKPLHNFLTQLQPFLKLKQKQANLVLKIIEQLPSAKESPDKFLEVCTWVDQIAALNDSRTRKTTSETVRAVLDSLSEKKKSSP
The note with it: 500 ng mRNA, FlpIn CHO.

For series [2], the system named is T2, MIT 25-26x.91 (synthetic construct).
T2 sequence: T1 sequence with A19S, W46H, E70T, S75D, E80Q, Q259H, R263T
The note with it: 500 ng mRNA, FlpIn CHO; 16% in repeat (FIG. 4).

The test system of series [3] is T3, MIT 25-26x.48 (synthetic construct).
T3 sequence: T1 sequence with W46H, E70T, S75D, Q259N, H261F, R263S, H276Y
The note with it: 500 ng mRNA, FlpIn CHO.

For the substance MIT 25-26 wild-type site (m.3243A), the activity was determined as 2 % indels in series [1], 20 % indels in series [2] and 44 % indels in series [3].
